The results in this text go back to paper PMC4207998 (The Journal of Biological Chemistry, 2014).

The assay addresses T1, monomeric α-toxin (AT) of Staphylococcus aureus, as crystallised (Staphylococcus aureus subsp. aureus …).
T1 chain: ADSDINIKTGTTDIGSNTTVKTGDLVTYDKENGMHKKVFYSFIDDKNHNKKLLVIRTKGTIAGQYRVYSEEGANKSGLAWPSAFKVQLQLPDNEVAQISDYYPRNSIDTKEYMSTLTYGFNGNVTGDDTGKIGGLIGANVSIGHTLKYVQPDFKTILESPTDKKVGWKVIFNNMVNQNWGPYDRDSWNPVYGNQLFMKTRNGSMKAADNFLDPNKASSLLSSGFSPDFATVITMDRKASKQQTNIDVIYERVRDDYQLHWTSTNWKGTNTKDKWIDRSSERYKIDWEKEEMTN
Put plainly: crystal structure. As to conditions: both partners purified.

B1: MEDI4893 Fab (Fab, V domains shown)
VH: EVQLVESGGGLVQPGGSLRLSCAASGFTFSSHDMHWVRQATGKGLEWVSGIGTAGDTYYPDSVKGRFTISRENAKNSLYLQMNSLRAGDTAVYYCARDRYSPTGHYYGMDVWGQGTTVTVSS
VL: DIQMTQSPSTLSASVGDRVTITCRASQSISSWLAWYQQKPGKAPKLLIYKASSLESGVPSRFSGSGSGTEFTLTISSLQPDDFATYYCKQYADYWTFGQGTKVEIK
B1: the binding result is recorded as “binds”.
